We go through one substance from PMC7839251.

pKd: −log10 of the molar value.

The target of this assay is N-terminal fluorescein labeled ubiquitin E3 ligase WWP2 (FAM-WWP2). The assay can be described thus: MST.

A word on the pKd: it is −log10 of the Kd, conventionally taken in molar units. Lower therefore signals a large Kd. For the substance “ubiquitin E2 conjugating enzyme UbcH5c (from UniProt P61077 1-147)”, the pKd is 5.02.
